# Reference: patent publication US20180087039A1
# No end group written: not given here.
# Target: fibrinogen (free fibrinogen in rat plasma) (rat) (UniProt P06399)
# Assay: cell-based or functional assay
binder,measurement,value
RTLAFVRFKKKAAVV-{K(lauroyl)-NH2} (also: self-assembled nanofiber) [RTL PA nanofiber (…(K)-C12 peptide amphiphile)],free fibrinogen level in plasma after incubation ex vivo with RTL PA (80 µM),< 36 mg/dL
